The results in this text go back to patent US20100291677A1.

What all share (assay): cell-based or functional assay
The target of assay [1] is IL-13Ra2 (interleukin 13 alpha 2 receptor) protein (human) (UniProt Q14627).
Assay [2] deals with MCP1 (monocyte chemoattractant protein-1) protein (human) (UniProt P13500).
Assay [3] has as its target TSP1 (thrombospondin-1) protein (human) (UniProt P07996).
The target of a further assay is IL-10 protein (UniProt P22301).
The target of assay [4] is FSTL1 (Follistatin-like 1) protein (human) (UniProt Q12841).
For a further assay, the target named is TGF-beta (UniProt P01137).
Sequence of UniProt P01137 (P01137 279-390 limits assumed): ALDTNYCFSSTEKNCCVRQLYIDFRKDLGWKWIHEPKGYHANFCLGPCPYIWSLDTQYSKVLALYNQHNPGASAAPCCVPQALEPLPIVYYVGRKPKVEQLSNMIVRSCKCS

Sequence of UniProt Q12841 (Q12841 21-308 limits assumed): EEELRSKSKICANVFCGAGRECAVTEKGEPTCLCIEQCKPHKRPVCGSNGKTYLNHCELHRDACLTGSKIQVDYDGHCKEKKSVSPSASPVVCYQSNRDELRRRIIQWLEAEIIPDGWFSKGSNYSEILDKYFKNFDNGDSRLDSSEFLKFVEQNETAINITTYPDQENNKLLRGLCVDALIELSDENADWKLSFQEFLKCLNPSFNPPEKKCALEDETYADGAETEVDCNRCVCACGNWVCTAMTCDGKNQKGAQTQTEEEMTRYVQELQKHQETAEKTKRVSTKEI
Sequence of UniProt P13500 (P13500 24-99 limits assumed): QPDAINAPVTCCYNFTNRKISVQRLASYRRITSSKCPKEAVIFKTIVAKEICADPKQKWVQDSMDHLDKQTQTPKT
Sequence of UniProt P22301 (P22301 19-178 limits assumed): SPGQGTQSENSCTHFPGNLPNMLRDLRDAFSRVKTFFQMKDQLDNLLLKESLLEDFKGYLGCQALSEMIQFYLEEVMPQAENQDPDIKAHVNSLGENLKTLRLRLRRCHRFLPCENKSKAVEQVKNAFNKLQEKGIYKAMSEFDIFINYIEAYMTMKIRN
Sequence of UniProt P07996 (P07996 19-1170 limits assumed): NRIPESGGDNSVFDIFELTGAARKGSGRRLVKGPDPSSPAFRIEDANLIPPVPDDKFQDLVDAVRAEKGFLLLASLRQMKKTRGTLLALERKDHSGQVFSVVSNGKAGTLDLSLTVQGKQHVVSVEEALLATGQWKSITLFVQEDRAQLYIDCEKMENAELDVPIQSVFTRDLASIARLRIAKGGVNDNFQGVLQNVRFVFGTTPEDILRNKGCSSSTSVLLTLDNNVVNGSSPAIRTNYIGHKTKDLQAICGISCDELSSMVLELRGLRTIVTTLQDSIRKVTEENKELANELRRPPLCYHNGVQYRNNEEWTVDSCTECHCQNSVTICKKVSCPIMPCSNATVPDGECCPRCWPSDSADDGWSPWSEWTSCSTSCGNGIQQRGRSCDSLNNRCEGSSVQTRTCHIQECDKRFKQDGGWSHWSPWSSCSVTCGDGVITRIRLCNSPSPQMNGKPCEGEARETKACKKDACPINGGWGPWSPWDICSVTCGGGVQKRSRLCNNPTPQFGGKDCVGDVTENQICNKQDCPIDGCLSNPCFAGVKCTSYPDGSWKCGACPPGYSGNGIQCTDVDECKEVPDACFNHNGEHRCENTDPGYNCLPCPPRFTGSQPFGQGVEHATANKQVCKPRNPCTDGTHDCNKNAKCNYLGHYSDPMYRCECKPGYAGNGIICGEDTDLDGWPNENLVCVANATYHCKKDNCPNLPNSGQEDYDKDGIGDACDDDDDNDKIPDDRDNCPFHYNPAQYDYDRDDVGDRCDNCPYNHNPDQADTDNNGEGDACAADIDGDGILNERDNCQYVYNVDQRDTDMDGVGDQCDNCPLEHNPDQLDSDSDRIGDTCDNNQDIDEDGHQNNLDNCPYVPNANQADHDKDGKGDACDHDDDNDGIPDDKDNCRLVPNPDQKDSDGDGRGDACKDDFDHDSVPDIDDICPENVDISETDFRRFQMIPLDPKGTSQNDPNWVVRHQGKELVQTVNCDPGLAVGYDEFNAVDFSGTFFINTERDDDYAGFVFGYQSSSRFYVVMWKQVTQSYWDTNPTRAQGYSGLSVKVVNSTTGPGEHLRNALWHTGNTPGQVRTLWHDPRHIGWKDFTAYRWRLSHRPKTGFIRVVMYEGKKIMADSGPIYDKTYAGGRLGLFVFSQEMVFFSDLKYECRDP
Sequence of UniProt Q14627 (Q14627 27-380 limits assumed): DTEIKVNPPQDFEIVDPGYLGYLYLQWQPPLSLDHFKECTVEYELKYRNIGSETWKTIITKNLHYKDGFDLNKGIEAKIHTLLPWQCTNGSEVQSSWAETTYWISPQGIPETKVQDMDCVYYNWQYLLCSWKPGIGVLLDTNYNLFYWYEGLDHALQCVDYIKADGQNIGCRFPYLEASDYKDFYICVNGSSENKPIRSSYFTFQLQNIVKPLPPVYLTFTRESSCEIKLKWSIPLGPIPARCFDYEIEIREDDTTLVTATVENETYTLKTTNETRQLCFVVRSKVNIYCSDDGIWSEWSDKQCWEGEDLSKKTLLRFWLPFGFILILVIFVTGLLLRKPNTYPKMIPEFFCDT

With anti-IL-13Ra2 antibody (R&D #AF146), in assay [1], the FoxP3 protein expression in CD8+ cells, B11 cells (FIG. 14) was 10.2; the expression level of FoxP3 protein in CD4+ cells, F3 clone with antibody (FIG. 6) was 11.9; the expression of FoxP3 protein enhanced by the culture supernatant of B11 clone (FIG. 8; 23.69 without antibody) was determined as 7.6.
In assay [2], “anti-MCP1 antibody (BD PharMingen #551226)” came in with a FoxP3 protein expression in CD8+ cells, F3 cells (FIG. 13) of 12; a decrease in cellular infiltration capability of F3 cells (matrigel Transwell, antibody at 1 ug/ml) of 45%; an expression level of FoxP3 protein in CD4+ cells, F3 clone with antibody (FIG. 6; 35.34 without) of 16.3; an expression level of FoxP3 protein in CD4+ cells, F3 clone with antibody (FIG. 7; 38.39 without) of 22.9. In assay [2], the expression level of FoxP3 protein in CD4+CD25+ cells, F3 clone with antibody turned out to be 22.1; the expression level of FoxP3 protein in CD4+CD25- cells, F3 clone with antibody is 19; the expression of FoxP3 protein enhanced by the culture supernatant of B11 clone (FIG. 8) stood at 4.69.
As for anti-TSP1 antibody (ABCAM #ab3131), in assay [3], the FoxP3 protein expression in CD8+ cells, F3 cells (FIG. 13) stood at 5.28; the expression level of FoxP3 protein in CD4+ cells, F3 clone with antibody (FIG. 6; 35.34 without) is 9.26; the expression level of FoxP3 protein in CD4+ cells, F3 clone with antibody (FIG. 7; 38.39 without) was 21.4; the expression level of FoxP3 protein in CD4+CD25+ cells, F3 clone with antibody was found to be 27.8. The same substance displayed an expression level of FoxP3 protein in CD4+CD25- cells, F3 clone with antibody in assay [3] of 16.6.
As to anti-IL-10 antibody (R&D #MAB2171), in the assay with IL-10 protein, the expression level of FoxP3 protein in CD4+ cells, F3 clone with antibody (FIG. 6) is 11.4; the expression level of FoxP3 protein in CD4+ cells, F3 clone with antibody (FIG. 7) is 30.9; the expression level of FoxP3 protein in CD4+CD25+ cells, F3 clone with antibody was 29.9; the expression level of FoxP3 protein in CD4+CD25- cells, F3 clone with antibody was 28.1.
As for anti-FSTL1 antibody (R&D #MAB1694), in assay [4], the decrease in cellular infiltration capability of F3 cells (matrigel Transwell, antibody at 1 ug/ml) stood at 45%; the expression level of FoxP3 protein in CD4+ cells, F3 clone with antibody (FIG. 6; 35.34 without) worked out at 14.9; the expression level of FoxP3 protein in CD4+ cells, F3 clone with antibody (FIG. 7; 38.39 without) stood at 34.7; the expression level of FoxP3 protein in CD4+CD25+ cells, F3 clone with antibody stood at 29.9. In addition, in assay [4], the expression level of FoxP3 protein in CD4+CD25- cells, F3 clone with antibody was 32.6.
In the assay with TGF-beta, anti-TGF-beta1 antibody (R&D #MAB246) had an expression level of FoxP3 protein in CD4+ cells, F3 clone with antibody (FIG. 6) of 23.4; an expression level of FoxP3 protein in CD4+ cells, F3 clone with antibody (FIG. 7) of 30.6; an expression level of FoxP3 protein in CD4+CD25+ cells, F3 clone with antibody of 28.9; an expression level of FoxP3 protein in CD4+CD25- cells, F3 clone with antibody of 28.4.
